{"source": "patent US20020164767", "tested_on": "PFEK-protease C-E-6XHIS zymogen", "sequence (chain, as listed by the source)": "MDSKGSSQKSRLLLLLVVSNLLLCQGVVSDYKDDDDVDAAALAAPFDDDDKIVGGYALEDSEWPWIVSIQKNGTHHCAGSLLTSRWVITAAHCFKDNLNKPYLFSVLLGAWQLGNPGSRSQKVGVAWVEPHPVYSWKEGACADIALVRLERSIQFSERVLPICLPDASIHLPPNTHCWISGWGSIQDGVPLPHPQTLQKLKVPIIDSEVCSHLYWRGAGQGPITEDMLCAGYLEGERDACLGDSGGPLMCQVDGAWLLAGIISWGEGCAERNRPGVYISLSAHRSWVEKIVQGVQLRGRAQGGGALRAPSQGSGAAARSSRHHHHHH", "data": [{"substance": "enterokinase", "values": [{"measurement": "cleavage of the zymogen (SDS-PAGE and anti-FLAG Western blot)", "result": "This demonstrates the quantitative cleavage of the expressed and purified zymogen to generate the processed and activated protease"}]}]}
